Test results published in publication PMC9834230, “The HAPSTR2 retrogene buffers stress signaling and resilience in mammals” (Nature Communications, 2023).

Biological target: the molecule itself
Experiment: SEC; analytical; 500 µg protein on Superdex 200 Increase 10/300 GL in PBS with 1 mM DTT, 0.3 mL/minute, 4 °C; stoichiometry estimated against standards

B1: recombinant maltose-binding protein (MBP)-tagged HAPSTR2 (natural protein, human, UniProt A0A7P0TBJ1 1-273, looked up)
chain: MEEQQKEGEAEVAEHWFSKWERQCLAEAEQEEQLPPELQEEAAAELAGLKSEKQKLWHLFQISATAVAQLYKDSGCQQQGLSMWDPFQNAAMAVTSLYKESGDAHQRSFDLGVQVGHQRRIKDVLEWVKKGRSTIRREDLISFLCGKVPPAPPPPRTPRTPPKPPTGVTSQAVATESSSSVDVDLQPFQEAIALHGLSGAMAGISMRSGDSPQDSGVASSGRRKTSFLEDDLNPFDSEELALHLDSGGIRKRTSAQCSDGITDSPIQKRNRMV
notes: HAPSTR2, human; Vector pDest-HisMBP (Addgene 11085); No cleavage of the tags is described; Homo-oligomer by SEC; also called MBP-HAPSTR2; H2; source: E. coli BL21 (DE3), purified (Ni-NTA, dialysis); not shown: MBP, N-terminal, kept
binding result: binds
